This note sets out measurements from paper PMC5521794, “Understanding Russell’s viper venom factor V activator’s substrate specificity by surface plasmon resonance and in-silico studies” (PLoS ONE, 2017).

In the experiment the target is Russell's viper venom factor V activator (Russell's viper, Natural, unmodified enzyme purified from Indian Russell's viper venom. The isoform (alpha or gamma) is not stated; gamma is assumed because the paper models RVV-V with PDB 3S9C. The candidate entry is). Put plainly: SPR; Biacore T200; RVV-V immobilised on a CM5 chip by amine coupling (3000 RU); peptides flowed over at 62.5 uM to 1 mM in PBS, 30 ul/min; association 120 s, dissociation 300 s; regeneration 10 mM glycine pH 2.5; two-state binding model. Particulars: both partners purified. In general terms: In SPR one partner is held on a chip, and binding of the other changes the refractive index at the surface.

B1: Peptide II (factor V cleavage site II, Lys1008-Pro1022) (peptide)
peptide: KHTHHAPLSPRTFHP
notes: also called site II peptide; source: synthetic peptide; bought: Genei
For B1, the affinity, expressed as Kd, was 2780 µM.
